Non-standard residues stand in square brackets, D forms with d. No end group written: not given here. *: point of attachment. Biotin = O=C1N[C@H]2[C@H](CS[C@H]2CCCCC(=O)*)N1; pY = N[C@@H](Cc1ccc(OP(=O)(O)O)cc1)C(=O)O
B1: CD244 ITSM1 phosphopeptide (Biotin-EFLTIpYEDVKD) (peptide)
peptide: Biotin-EFLTI[pY]EDVKD
notes: CD244 (SLAMF4), human, cytoplasmic ITSM1; also called SLAMF4 ITSM1; source: synthetic peptide (Peptide Protein Research Ltd)
B2: CD244 ITSM3+ITSM4 tandem phosphopeptide (peptide)
peptide: Biotin-PAYTL[pY]SLIQPSRKSGSRKRNHSPSFNSTI[pY]EVIGK
notes: CD244 (SLAMF4), human, cytoplasmic stretch with ITSM3 and ITSM4; source: synthetic peptide (Peptide Protein Research Ltd)
B3: SIRPα ITIM1+ITIM2 tandem phosphopeptide (peptide)
peptide: Biotin-TNDIT[pY]ADLNLPKGKKPAPQAAEPNNHTE[pY]ASIQT
notes: SIRPα, human, cytoplasmic stretch with ITIM1 and ITIM2; source: synthetic peptide (Peptide Protein Research Ltd)
B4: CD244 ITSM1,ITSM2 (equimolar mixture of single ITSM on chip) (other)
chain 1: Biotin-EFLTI[pY]EDVKD
chain 2: Biotin-GGSTI[pY]SMIQS
modifications: also: equimolar mixture of two separate peptides
B5: CD244 ITSM1+ITSM2 tandem phosphopeptide (peptide)
peptide: Biotin-EFLTI[pY]EDVKDLKTRRNHEQEQTFPGGGSTI[pY]SMIQS
notes: CD244 (SLAMF4), human, cytoplasmic stretch with ITSM1 and ITSM2; also called tandem ITSM peptide; source: synthetic peptide (Peptide Protein Research Ltd)
B6: CRACC ITSM2 phosphopeptide (Biotin-PANTVpYSTVEI) (peptide)
peptide: Biotin-PANTV[pY]STVEI
notes: CRACC (SLAMF7), human, cytoplasmic ITSM2; also called SLAMF7 ITSM2; source: synthetic peptide (Peptide Protein Research Ltd)
B7: LAT Y132 phosphopeptide (Biotin-HNPGpYLVVLPD) (peptide)
peptide: Biotin-HNPG[pY]LVVLPD
notes: LAT, human, stretch around Y132; also called LAT pY132; source: synthetic peptide (Peptide Protein Research Ltd)
B8: EAT-2 Y127 phosphopeptide (Biotin-NSNSDpYVDVLP) (peptide)
peptide: Biotin-NSNSD[pY]VDVLP
notes: EAT-2, human, tail with the conserved tyrosine motif Y127; also called EAT-2 pY127; EAT-2 tail phosphopeptide; source: synthetic peptide (Peptide Protein Research Ltd)

How the values were obtained:
Settings in all cases: both partners purified
[1] = target: T1, SHIP SH2 (SH2 domain from human SHIP-1) (human, UniProt Q92835 5-101); assay: SPR; biotinylated phosphopeptides immobilised on streptavidin chip (about 25 RU single, 50 RU tandem motifs); soluble recombinant protein injected; 37°C; HBS-EP; equilibrium binding (Table 4; same-day purification not given)
T1 construct: SHIP-1, human, single SH2 domain; also called hSHIP SH2; SHIP-1 SH2 domain; source: E. coli BL21(DE3)pLysS, purified (Co2+ or Ni2+ column, size exclusion chromatography)
T1 sequence (looked up): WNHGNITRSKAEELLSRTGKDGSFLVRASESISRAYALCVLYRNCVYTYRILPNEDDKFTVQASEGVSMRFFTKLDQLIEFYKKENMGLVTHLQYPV

[2] = target: T2, SHP-2 N-terminal + C-terminal (N+C) SH2 domains (human, UniProt Q06124 2-219); assay: as above
T2 construct: SHP-2, human, N-terminal + C-terminal SH2 domains, aa 2–219; also called SHP-2 (SH2-SH2); SHP2 N+C SH2; source: E. coli BL21(DE3)pLysS, purified (Oxford Protein Production Facility / in house; size exclusion chromatography)
T2 sequence (looked up): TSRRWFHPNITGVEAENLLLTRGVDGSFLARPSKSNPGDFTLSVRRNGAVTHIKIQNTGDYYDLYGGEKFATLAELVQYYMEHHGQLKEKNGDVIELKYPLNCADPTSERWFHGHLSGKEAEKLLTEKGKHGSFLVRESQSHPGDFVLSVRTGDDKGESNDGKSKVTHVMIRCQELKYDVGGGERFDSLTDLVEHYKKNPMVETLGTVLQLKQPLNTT

[3] = target: T3, EAT-2 (recombinant full-length human EAT-2) (human, UniProt O14796 1-132); assay: as above
T3 construct: EAT-2, human, full length; source: E. coli BL21(DE3)pLysS, purified (Co2+ or Ni2+ column, size exclusion chromatography)
T3 sequence (looked up): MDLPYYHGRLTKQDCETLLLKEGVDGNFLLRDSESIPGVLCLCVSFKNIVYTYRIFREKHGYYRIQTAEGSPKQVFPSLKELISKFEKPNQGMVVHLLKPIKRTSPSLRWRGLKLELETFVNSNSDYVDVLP

[4] = target: T3, EAT-2 (recombinant full-length human …); assay: SPR; biotinylated phosphopeptides immobilised on streptavidin chip (about 25 RU single motifs); soluble recombinant protein injected in two-fold dilutions; 37°C; HBS-EP (10 mM HEPES pH 7.4, 150 mM NaCl, 3.4 mM EDTA, 0.005% P20); equilibrium binding, one-site model; proteins purified on the same day as SPR (Tables 1 and 6)
[5] = target: T4, PLCγ1 SH2-SH2-SH3 (tandem SH2 domains plus the SH3 domain of PLCγ1) (human, UniProt P19174 536-863); assay: as above
T4 construct: PLCγ1, human, tandem SH2 domains plus SH3 domain, aa 536–863; Printed MW = 42531 of the recombinant protein; also called recombinant PLCγ1; source: E. coli BL21(DE3)pLysS, purified (Co2+ or Ni2+ column, size exclusion chromatography, same day as SPR)
T4 sequence: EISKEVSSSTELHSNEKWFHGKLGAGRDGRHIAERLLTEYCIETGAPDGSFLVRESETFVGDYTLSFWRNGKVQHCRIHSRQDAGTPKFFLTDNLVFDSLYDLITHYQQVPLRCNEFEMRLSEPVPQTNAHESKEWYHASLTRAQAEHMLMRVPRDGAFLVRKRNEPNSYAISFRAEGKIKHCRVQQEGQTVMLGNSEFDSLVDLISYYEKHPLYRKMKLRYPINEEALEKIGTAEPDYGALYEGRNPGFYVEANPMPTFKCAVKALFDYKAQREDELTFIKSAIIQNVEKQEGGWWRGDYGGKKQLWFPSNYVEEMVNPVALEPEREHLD

[6] = target: T5, PLCγ2 SH2-SH2-SH3 (tandem SH2 domains plus the SH3 domain of PLCγ2) (human, UniProt P16885 519-838); assay: as above
T5 construct: PLCγ2, human, tandem SH2 domains plus SH3 domain, aa 519–838; Printed MW = 42415 of the recombinant protein; also called recombinant PLCγ2 SH2 domains; source: E. coli BL21(DE3)pLysS, purified (Co2+ or Ni2+ column, size exclusion chromatography, same day as SPR)
T5 sequence: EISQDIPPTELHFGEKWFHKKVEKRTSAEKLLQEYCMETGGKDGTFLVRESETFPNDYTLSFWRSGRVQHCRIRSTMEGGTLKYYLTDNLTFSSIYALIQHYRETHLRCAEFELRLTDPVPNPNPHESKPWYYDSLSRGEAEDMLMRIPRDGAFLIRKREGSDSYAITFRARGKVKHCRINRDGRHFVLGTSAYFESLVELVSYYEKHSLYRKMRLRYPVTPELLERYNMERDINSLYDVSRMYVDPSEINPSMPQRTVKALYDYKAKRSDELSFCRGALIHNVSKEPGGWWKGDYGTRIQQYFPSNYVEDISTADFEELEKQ

[7] = target: T2, SHP-2 N-terminal + C-terminal (N+C) SH2 …; assay: SPR; biotinylated tandem phosphopeptides immobilised on streptavidin chip; SHP-2 N+C SH2 injected; 25°C; HBS-EP; equilibrium binding (Table 4)
[8] = target: T6, SAP (recombinant full-length human SAP) (human, UniProt O60880 1-128); assay: SPR; biotinylated phosphopeptides immobilised on streptavidin chip (about 25 RU single motifs); soluble recombinant protein injected in two-fold dilutions; 37°C; HBS-EP (10 mM HEPES pH 7.4, 150 mM NaCl, 3.4 mM EDTA, 0.005% P20); equilibrium binding, one-site model; proteins purified on the same day as SPR (Tables 1 and 6)
T6 construct: SAP, human, full length; also called SH2D1A; source: E. coli BL21(DE3)pLysS, purified (Co2+ or Ni2+ column, size exclusion chromatography)
T6 sequence (looked up): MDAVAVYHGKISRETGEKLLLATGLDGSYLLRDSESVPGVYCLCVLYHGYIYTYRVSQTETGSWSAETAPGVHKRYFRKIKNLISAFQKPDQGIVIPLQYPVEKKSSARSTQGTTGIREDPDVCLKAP

| Binder | Kd [2] [nM] | Kd [5] [nM] | Kd [6] [nM] | Kd [7] [nM] | other results |
| --- | --- | --- | --- | --- | --- |
| B1 | 29000 | 800 | 210 |  | Kd [1]: 11000 nM; Kd [3]: 60 nM; Kd [4]: 20 nM |
| B2 | 10000 |  |  | 7400 |  |
| B3 | 1000 |  |  | 500 |  |
| B4 | 22000 |  |  |  |  |
| EDTLTYADLDMVHLNRTPKQPAPKPEPSFSEYASVQV (also: phosphorylated, sites not given here, biotinylated, site not given here) [SIRPα ITIM3+ITIM4 tandem phosphopeptide] |  |  |  | 6400 |  |
| ENTITYSLLMH (also: phosphorylated, site not given here, biotinylated, site not given here) [FCRγIIb (CD32) phosphopeptide] |  |  |  |  | Kd [1]: 470 nM |
| B5 | 2200 |  |  | 1400 |  |
| B6 |  |  |  |  | Kd [8]: 440 nM; Kd [4]: 3 nM |
| B7 |  | 20 | 20 |  |  |
| B8 |  | 10 | 30 |  |  |
